Reference: patent US20030211523A1 (published 2003)

Experiments:
[1] = molecular target: VP16 transcription activation domain fused to aa 133-239 of c-Fos, encoded by PMVP_Fos (human) (UniProt P01100); experiment: cell-based or functional assay
[2] = molecular target: VP16 activation domain alone, encoded by the empty prey vector PMVP (UniProt P06492); experiment: cell-based or functional assay
[3] = molecular target: T1, JA domain (aa 1-223) of c-Jun fused with GFP, encoded by PMNGFP_JA (human, UniProt P05412 1-223; P42212 1-238 = GFP); experiment: in vivo binding screening: membrane localization of the GFP fusion in HEK293T cells, fluorescence microscopy
T1 construct: Expressed in HEK293T cells

[4] = molecular target: T2, JZ domain of c-Jun fused with GFP, encoded by PMNGFP_JZ (human, UniProt P05412 249-331; P42212 1-238 = GFP); experiment: as above
T2 construct: Expressed in HEK293T cells; also called bait in the second screening

Sequence of VP16 activation domain alone, encoded by the empty prey vector PMVP (P06492 411-456 limits assumed): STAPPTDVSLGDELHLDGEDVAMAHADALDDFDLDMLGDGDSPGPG

Gal4 DNA-binding domain alone, encoded by the empty bait vector PMBD (from UniProt P04386 1-147)
events with GFP 30-fold or more above the background (FACS) (event in 10000) [1]: < 1

Gal4 DNA-binding domain fused to the JZ domain (aa 249-331) of c-Jun, encoded by PMBD_JZ (from UniProt P04386 1-147; P05412 249-331)
events with GFP 30-fold or more above the background (FACS) (event in 10000) [2]: < 1

B1: Fyn_Fos peptide: Fyn myristoylation (membrane-localizing) signal fused to c-Fos aa 133-239, expressed from the 3-primer PCR product (other, UniProt P06241 1-10, looked up)
chain: MGCVQCKDKESPEEEEKRRIRRERNKMAAAKCRNRRRELTDTLQAETDQLEDEKSALQTEIANLLKEKEKLEFILAAHRPACKIPDDLGFPEEMSVASLDLTGGLPEVATPESEEAF
modifications: myristoylation signal at the N-terminus (membrane-localizing signal)
notes: domain: myristoylation signal;range 133-239; Expressed in HEK293T cells
binding result [3]: no binding

B2: Fyn_JA: Fyn membrane-localizing signal fused to the JA domain of c-Jun (other, UniProt P06241 1-10, looked up)
chain: MGCVQCKDKEMTAKMETTFYDDALNASFLPSESGPYGYSNPKILKQSMTLNLADPVGSLKPHLRAKNSDLLTSPDVGLLKLASPELERLIIQSSNGHITTTPTPTQFLCPKNVTDEQEGFAEGFVRALAELHSQNTLPSVTSAAQPVNGAGMVAPAVASVAGGSGSGGFSASLHSEPPVYANLSNFNPGALSSGGGAPSYGAAGLAFPAQPQQQQQPPHHLPQQMPVQHPRLQ
modifications: myristoylation signal at the N-terminus (membrane-localizing signal)
notes: domain: myristoylation signal;range 1-223
binding result [4]: no binding
